First the molecules themselves.
B2: CNNM2BAT (domain or fragment, UniProt Q9H8M5 429-584, looked up)
chain: KEELNIIQGALELRTKTVEDVMTPLRDCFMITGEAILDFNTMSEIMESGYTRIPVFEGERSNIVDLLFVKDLAFVDPDDCTPLKTITKFYNHPLHFVFNDTKLDAMLEEFKKGKSHLAIVQRVNNEGEGDPFYEVLGIVTLEDVIEEIIKSEILDE
notes: Bateman module (CBS1 and CBS2) of CNNM2, purified; theoretical mass of the monomer printed as 17.72 kDa; also called Bateman module of CNNM2

For the series “CNNM2BAT”, the target named is B2. Briefly: SEC; Superdex 200 Increase 10/300 GL, 1 mg/mL protein, 0.5 ml/min, 50 mM Hepes pH 8.5, 200 mM NaCl, 1 mM MgCl2, 1 mM TCEP; masses from a calibration line. The following applies: both partners purified. On the technique in general: SEC sorts molecules by how far they enter the pores of the column.
Series [1] concerns the molecule itself. Described as above.

This note sets out measurements from article PMC8257531, “ARL15 modulates magnesium homeostasis through N-glycosylation of CNNMs” (Cellular and Molecular Life Sciences: CMLS, 2021).

B1: Pure ARL15 (gel filtration) (natural protein, UniProt Q9NXU5 1-204, looked up)
chain: MSDLRITEAFLYMDYLCFRALCCKGPPPARPEYDLVCIGLTGSGKTSLLSKLCSESPDNVVSTTGFSIKAVPFQNAILNVKELGGADNIRKYWSRYYQGSQGVIFVLDSASSEDDLEAARNELHSALQHPQLCTLPFLILANHQDKPAARSVQEIKKYFELEPLARGKRWILQPCSLDDMDALKDSFSQLINLLEEKDHEAVRM
notes: ARL15, purified; theoretical mass of the monomer printed as 19.57 kDa; The printed theoretical mass of 19.57 kDa is below that of whole ARL15, so a shortened construct is likely
What is called stoichiometry N is a count of units in the complex or per binding partner. As to B1, the “stoichiometry N” value with CNNM2BAT was 1 ARL15 per CNNM2BAT (2:2); in series [1] it was 2.

B2: the “stoichiometry N” value in series [1] worked out at 2.
